# Results: patent US11015206B2, “Compositions and methods comprising sequences having hydroxyphenylpyruvate dioxygenase (HPPD) activity” (PIONEER HI-BRED INTERNATIONAL, INC., priority 2014, dated 2021)
# What was measured:
# Assay type in all cases: biochemical, Z. mays
# [1] = system: 4-hydroxyphenylpyruvate dioxygenase (HPPD); experiment: Estimate of kcat from initial rate at saturating hydroxyphenylpyruvate without inhibitor (ON rate ratio assay); settings: Table 5; single substitutions in Round 7 variant 9070 (SEQ ID NO:2); estimate from initial rate at saturating hydroxyphenylpyruvate without inhibitor
# How it was run: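 kcat was estimated from the initial reaction rate with known enzyme level (60 or 120 nM HPPD). Hydroxyphenylpyruvate was at a saturating 100 μM, with no inhibitor present.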
# [2] = system: 4-hydroxyphenylpyruvate dioxygenase (HPPD); experiment: HPPD activity coupled assay with HGD; substrate saturation kinetic parameters (kcat, KM); settings: Table 6; for kcat: single substitutions in SEQ ID NO:2
# How it was run: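 Coupled continuous assay: His-tagged HPPD (5 to 240 nM, E. coli-expressed, Ni-NTA-purified) with 50 nM P. aeruginosa HGD in 25 mM Hepes pH 7, 2 mM ascorbate, 10 μM FeSO4; maleylacetoacetate followed at 320 nm. KM and Vmax from Lineweaver-Burke fits over 3.33–100 μM HPP.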
# [3] = system: 4-hydroxyphenylpyruvate dioxygenase (HPPD); experiment: ON rate ratio: HPPD reaction rate with vs without inhibitor in the 70 to 90 second interval; settings: Table 5; tembotrione
# How it was run: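 Indicator of inhibitor on-rate: reaction velocity in the 70 to 90 second window with 4 μM inhibitor divided by that without. Reactions contained 100 μM HPP and 60 or 120 nM HPPD; slower binding gives a larger ratio.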
# [4] = system: 4-hydroxyphenylpyruvate dioxygenase (HPPD); experiment: Insensitivity parameter (ON × OFF) and trait fitness (ON × OFF × kcat/KM or × kcat); settings: for ON × OFF × kcat, Value / ON × OFF × kcat, Fold vs wt / ON × OFF, fold vs wt / ON × OFF (parameters with tembotrione): Table 5, tembotrione; for ON × OFF × kcat, Fold vs wt / ON × OFF, fold vs wt: fold vs maize wild type HPPD; for ON × OFF (parameters with tembotrione): insensitivity parameter
# How it was run: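 Trait fitness combines catalysis and insensitivity as kcat/KM × ON rate ratio × OFF rate ratio. The insensitivity parameter is the product of ON and OFF rate ratios, used in place of KD because the ON rate ratio is inverse.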
# [5] = system: 4-hydroxyphenylpyruvate dioxygenase (HPPD); experiment: OFF rate ratio: release of inhibitor from pre-formed enzyme-inhibitor complex; settings: Table 5; tembotrione
# How it was run: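 Inhibitor release from pre-formed complex (enzyme 7.2 μM, inhibitor 8 μM, 1 h RT) tracked as accelerating HPPD activity at 320 nm over 12 min, coupled via 50 nM HGD with 100 μM HPP at pH 7. OFF rate ratio: steady-state velocity relative to uninhibited initial velocity.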
# [6] = DKN (diketonitrile form of isoxaflutole)
# [7] = DKN (isoxaflutole diketonitrile)
Molecule,kcat [1] [s⁻¹],Km [2] [µM],kcat [2] [s⁻¹],ON ratio (parameters with tembotrione) [3],"Insensitivity parameter, ON × OFF [4, 6]","ON × OFF × kcat/km fold vs Round 7, variant 9070 [4, 7]","Insensitivity parameter, ON × OFF ([4]; Mesotrione, Table 6)","ON × OFF × kcat/km fold vs Round 7, variant 9070 ([4]; Sulco (sulcotrione))","Insensitivity parameter, ON × OFF ([4]; Sulcotrione)","ON × OFF × kcat, Value [4]","ON × OFF × kcat, Fold vs wt [4]","ON × OFF, fold vs wt [4]",ON × OFF (parameters with tembotrione) [4],"Insensitivity parameter, ON × OFF ([4]; Tembotrione)","ON × OFF × kcat/km fold vs Round 7, variant 9070 ([4]; Topra (topramezone))","Insensitivity parameter, ON × OFF ([4]; Topramezon)","ON × OFF × kcat/km fold vs Round 7, variant 9070 ([4]; meso (mesotrione))","ON × OFF × kcat/km fold vs Round 7, variant 9070 ([4]; tembo (tembotrione))",OFF ratio (parameters with tembotrione) [5]
"191G: single substitution A191G in SEQ ID NO:2 (protein, Zea mays variant form created by artificial means.) MGPTPTATAAGAAVAAASAAEQAAFRLVGHRNFVRFNPRSDRFQTLAFHHVELWCADAASAAGRFSFALGVPLAARSDLSTGNSAHASLLLRSGSLSLLFTAPYAHGADAATAALPSFSAAAARRFAADHGLAVRAVALRVADAEDAFRASVAAGARPAFGPVDLGRGFRLAEVELYGDVVLRYVSYPDGGAGEPFLPGFEGVASPGAADYGLSRFDHIVGNVPELAPAAAYMAGFTGFHEFAEFTTEDVGTTESGLNSMALANNSENVLLPLNEPVHGTKRRSQIQTFLDHHGGPGVQHIALASDDVLRTLREMRARSAMGGFEFLPPPLSDYYDGVRRCAGDVLTEAQINECQELGVMVDRDDQGVLLQIFTKPVGDRPTFFLEIIQRIGCMEKDEKGQEYQKGGCGGFGKGNFGQLFKSIEDYEKSLEAKQAAAAATAQGS",0.71,2.46,1.2,0.77,0.25,1.1,0.40,1.1,0.51,4.36,4.08,20.1,0.10,0.19,1.1,0.24,1.1,1.0,0.13
"182M: single substitution L182M in SEQ ID NO:2 (protein, Zea mays variant form created by artificial means.) MGPTPTATAAGAAVAAASAAEQAAFRLVGHRNFVRFNPRSDRFQTLAFHHVELWCADAASAAGRFSFALGVPLAARSDLSTGNSAHASLLLRSGSLSLLFTAPYAHGADAATAALPSFSAAAARRFAADHGLAVRAVALRVADAEDAFRASVAAGARPAFGPVDLGRGFRLAEVELYGDVVMRYVSYPDGAAGEPFLPGFEGVASPGAADYGLSRFDHIVGNVPELAPAAAYMAGFTGFHEFAEFTTEDVGTTESGLNSMALANNSENVLLPLNEPVHGTKRRSQIQTFLDHHGGPGVQHIALASDDVLRTLREMRARSAMGGFEFLPPPLSDYYDGVRRCAGDVLTEAQINECQELGVMVDRDDQGVLLQIFTKPVGDRPTFFLEIIQRIGCMEKDEKGQEYQKGGCGGFGKGNFGQLFKSIEDYEKSLEAKQAAAAATAQGS",0.433,2.88,0.935,0.79,0.30,0.9,0.44,0.9,0.60,5.63,5.26,42.5,0.22,0.23,0.9,0.29,0.8,1.0,0.28
"366E: single substitution Q366E in Round 7, variant 9070 (SEQ ID NO:2) (protein, Zea mays variant form created by artificial means.) MGPTPTATAAGAAVAAASAAEQAAFRLVGHRNFVRFNPRSDRFQTLAFHHVELWCADAASAAGRFSFALGVPLAARSDLSTGNSAHASLLLRSGSLSLLFTAPYAHGADAATAALPSFSAAAARRFAADHGLAVRAVALRVADAEDAFRASVAAGARPAFGPVDLGRGFRLAEVELYGDVVLRYVSYPDGAAGEPFLPGFEGVASPGAADYGLSRFDHIVGNVPELAPAAAYMAGFTGFHEFAEFTTEDVGTTESGLNSMALANNSENVLLPLNEPVHGTKRRSQIQTFLDHHGGPGVQHIALASDDVLRTLREMRARSAMGGFEFLPPPLSDYYDGVRRCAGDVLTEAQINECQELGVMVDRDDEGVLLQIFTKPVGDRPTFFLEIIQRIGCMEKDEKGQEYQKGGCGGFGKGNFGQLFKSIEDYEKSLEAKQAAAAATAQGS",0.335,1.61,0.647,0.75,0.44,1.7,0.78,1.4,0.74,3.58,3.35,34.9,0.18,0.33,1.9,0.48,1.8,1.8,0.24
"432R: single substitution A432R in SEQ ID NO:2 (protein, Zea mays variant form created by artificial means.) MGPTPTATAAGAAVAAASAAEQAAFRLVGHRNFVRFNPRSDRFQTLAFHHVELWCADAASAAGRFSFALGVPLAARSDLSTGNSAHASLLLRSGSLSLLFTAPYAHGADAATAALPSFSAAAARRFAADHGLAVRAVALRVADAEDAFRASVAAGARPAFGPVDLGRGFRLAEVELYGDVVLRYVSYPDGAAGEPFLPGFEGVASPGAADYGLSRFDHIVGNVPELAPAAAYMAGFTGFHEFAEFTTEDVGTTESGLNSMALANNSENVLLPLNEPVHGTKRRSQIQTFLDHHGGPGVQHIALASDDVLRTLREMRARSAMGGFEFLPPPLSDYYDGVRRCAGDVLTEAQINECQELGVMVDRDDQGVLLQIFTKPVGDRPTFFLEIIQRIGCMEKDEKGQEYQKGGCGGFGKGNFGQLFKSIEDYEKSLERKQAAAAATAQGS",0.51,1.97,0.945,0.78,0.27,2.1,0.53,1.3,0.59,4.75,4.44,30.4,0.16,0.23,1.4,0.31,1.5,1.6,0.20
"417S: single substitution G417S in SEQ ID NO:2 (protein, Zea mays variant form created by artificial means.) MGPTPTATAAGAAVAAASAAEQAAFRLVGHRNFVRFNPRSDRFQTLAFHHVELWCADAASAAGRFSFALGVPLAARSDLSTGNSAHASLLLRSGSLSLLFTAPYAHGADAATAALPSFSAAAARRFAADHGLAVRAVALRVADAEDAFRASVAAGARPAFGPVDLGRGFRLAEVELYGDVVLRYVSYPDGAAGEPFLPGFEGVASPGAADYGLSRFDHIVGNVPELAPAAAYMAGFTGFHEFAEFTTEDVGTTESGLNSMALANNSENVLLPLNEPVHGTKRRSQIQTFLDHHGGPGVQHIALASDDVLRTLREMRARSAMGGFEFLPPPLSDYYDGVRRCAGDVLTEAQINECQELGVMVDRDDQGVLLQIFTKPVGDRPTFFLEIIQRIGCMEKDEKGQEYQKGGCGGFGKGNFSQLFKSIEDYEKSLEAKQAAAAATAQGS",0.308,1.41,0.445,0.82,0.41,0.9,0.67,1.1,0.77,4.26,3.98,45.2,0.23,0.33,1.2,0.41,1.3,1.6,0.28
